The results in this text go back to patent US20260242478A1 (published 2026).

Where no end group is shown, it is not given here.

In test [1] the target is T1, Anti-PSMA Fab.
T1 construct: Biotinylated and captured on neutravidin plates in the phage ELISA; also called 006 PSMA Fab
The experiment in a line: clonal phage ELISA; biotinylated anti-PSMA Fab on neutravidin plate; anti-M13 HRP detection; no PSMA added.
Description: (§1) Clonal phage were harvested as crude supernatants and screened via standard ELISAs. […] Prior to the addition of clonal phage. wells were incubated with blocking buffer and PSMA antigen or blocking buffer alone. Without washing or aspirating, clonal phage supernatants were then added to the wells and incubated for a short time. Wells were then washed followed by detection of bound phage using a horse radish conjugated anti-M13 antibody.

Test [2] has as its target T1, Anti-PSMA Fab. Put plainly: clonal phage ELISA; biotinylated anti-PSMA Fab on neutravidin plate; anti-M13 HRP detection; competitor: PSMA antigen pre-added. For orientation: In an ELISA, binding on a coated surface is turned into a signal by an enzyme label.
Description: as §1
In test [3] the target is T2, PSMA Fab.
T2 construct: In the phage ELISA the PSMA Fab was biotinylated and captured on neutravidin coated plates; also called anti-PSMA Fab; 006 PSMA Fab
Put plainly: phage ELISA, clonal phage on biotinylated PSMA Fab captured on neutravidin plate, anti-M13 HRP detection.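 Note: crude clonal phage supernatants added to wells preincubated with PSMA antigen in blocking buffer or with blocking buffer only, giving a competition and a no-competitor control.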
Description: as §1

Test [4] has as its target T2, PSMA Fab. The experiment in a line: phage ELISA, clonal phage on captured PSMA Fab pre-incubated with PSMA antigen as competitor, anti-M13 HRP detection.
Description: as §1
Test [5] has as its target T3, PSMA Fab.
T3 construct: also called Anti-PSMA Fab; 006 PSMA Fab
The experiment in a line: clonal phage ELISA; biotinylated PSMA Fab on neutravidin plate, blocking buffer alone; anti-M13 HRP detection.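 Note: crude clonal phage supernatants added without washing to wells pretreated with blocking buffer with or without PSMA antigen, short incubation, then washed before detecting bound phage.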
Description: as §1

Test [6] has as its target T3, PSMA Fab. The experiment in a line: clonal phage ELISA; biotinylated PSMA Fab on neutravidin plate, wells first incubated with PSMA antigen as competitor; anti-M13 HRP detection.
Description: as §1
Test [7] deals with T4, PSMA Fab.
T4 construct: In the phage ELISA the PSMA Fab was biotinylated and captured on neutravidin coated plates; also called Anti-PSMA Fab; 006 PSMA Fab
The experiment in a line: clonal phage ELISA on biotinylated PSMA Fab captured on neutravidin plates, anti-M13 HRP detection.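 Note: crude clonal phage supernatants tested, before phage were added, wells were pretreated with PSMA antigen in blocking buffer or with blocking buffer only.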
Description: as §1

For the molecule HDYACVPKWMCEGL [Phage-3621], the “Phage binding ELISA signal, Anti-PSMA Fab” value in test [1] amounted to 1.57. In addition, the “Phage binding ELISA signal, Anti-PSMA Fab with PSMA antigen” value in test [2] was determined as 0.0818.

In the case of QFLVCKPSWMCNGF [Phage-3402], the “Phage binding ELISA signal, Anti-PSMA Fab” value in test [3] came out at 1.8. The “Phage binding ELISA signal, Anti-PSMA Fab in presence of PSMA” value in test [4] was 0.0882.

Take FERLCIPEWMCSAF [Phage-3400]: the “Phage binding ELISA signal, Anti-PSMA Fab” value in test [3] came out at 1.8. The “Phage binding ELISA signal, Anti-PSMA Fab in presence of PSMA” value in test [4] was 0.102.

With LEAACRPMWMCLGF (cysteine pairing not given here; also: fused to pIII of bacteriophage) [Phage-3466], the “Phage binding ELISA signal, Anti-PSMA Fab” value in test [5] is 1.73. Further, the “phage binding ELISA signal, Anti-PSMA Fab in the presence of PSMA” value in test [6] is 0.0664.

As for HSALCIPSWMCQGF [Phage-3305], the “Phage binding ELISA signal, Anti-PSMA Fab” value in test [7] amounted to 1.87.

For the molecule EGTWCRPAWMCDGF [Phage-3473], the “Phage binding ELISA signal, Anti-PSMA Fab” value in test [5] worked out at 1.73. Also, in test [6], the “phage binding ELISA signal, Anti-PSMA Fab in the presence of PSMA” value turned out to be 0.0819.

As to EDRICEPDWMCAGF [Phage-3475], the “Phage binding ELISA signal, Anti-PSMA Fab” value in test [5] amounted to 1.73. The “phage binding ELISA signal, Anti-PSMA Fab in the presence of PSMA” value in test [6] came out at 0.105.

Consider ADHMCVPQWMCSGF [Phage-3619], for which the “Phage binding ELISA signal, Anti-PSMA Fab” value in test [1] is 1.57. The “Phage binding ELISA signal, Anti-PSMA Fab with PSMA antigen” value in test [2] was 0.103.

FRDYCVPPWMCVGM [Phage-3401]: the “Phage binding ELISA signal, Anti-PSMA Fab” value in test [3] was 1.8. In test [4], the “Phage binding ELISA signal, Anti-PSMA Fab in presence of PSMA” value worked out at 0.0791.

Consider WEARCQPTWMCTGF (cysteine pairing not given here; also: fused to pIII of bacteriophage) [Phage-3467], for which the “Phage binding ELISA signal, Anti-PSMA Fab” value in test [5] was 1.73. Also, the “phage binding ELISA signal, Anti-PSMA Fab in the presence of PSMA” value in test [6] worked out at 0.0667.

Take QEVWCRPIWMCEGF [Phage-3472]: in test [5], the “Phage binding ELISA signal, Anti-PSMA Fab” value was 1.73. Besides, the “phage binding ELISA signal, Anti-PSMA Fab in the presence of PSMA” value in test [6] worked out at 0.109.

On to GWPVCVPPWMCDGF [Phage-3303], for which, in test [7], the “Phage binding ELISA signal, Anti-PSMA Fab” value worked out at 1.87.

As to ENHYCRPAWMCNGF [Phage-3393], in test [3], the “Phage binding ELISA signal, Anti-PSMA Fab” value worked out at 1.8. Moreover, the “Phage binding ELISA signal, Anti-PSMA Fab in presence of PSMA” value in test [4] was found to be 0.106.

In the case of LERACKPMWMCEGF [Phage-3474], in test [5], the “Phage binding ELISA signal, Anti-PSMA Fab” value was determined as 1.73. In addition, the “phage binding ELISA signal, Anti-PSMA Fab in the presence of PSMA” value in test [6] was 0.0863.

Consider IELMCRPLWMCMGF [Phage-3398], for which the “Phage binding ELISA signal, Anti-PSMA Fab” value in test [3] was determined as 1.8. Moreover, the “Phage binding ELISA signal, Anti-PSMA Fab in presence of PSMA” value in test [4] turned out to be 0.0966.

For SVPSCVPPWMCIGF [Phage-3471], the “Phage binding ELISA signal, Anti-PSMA Fab” value in test [5] is 1.73. For the same molecule, in test [6], the “phage binding ELISA signal, Anti-PSMA Fab in the presence of PSMA” value is 0.0613.

As for EIVKCVPPWMCSGI [Phage-3469], the “Phage binding ELISA signal, Anti-PSMA Fab” value in test [5] is 1.73. In addition, the “phage binding ELISA signal, Anti-PSMA Fab in the presence of PSMA” value in test [6] was determined as 0.0727.

In the case of GFPWCEPQWMCIGF [Phage-3396], the “Phage binding ELISA signal, Anti-PSMA Fab” value in test [3] was 1.8. Also, the “Phage binding ELISA signal, Anti-PSMA Fab in presence of PSMA” value in test [4] is 0.114.

In the case of VESMCKPAWMCIGF [Phage-3300], the “Phage binding ELISA signal, Anti-PSMA Fab” value in test [7] was determined as 1.88.

On to TNPMCVPEWMCYGF [Phage-3468], for which the “Phage binding ELISA signal, Anti-PSMA Fab” value in test [5] worked out at 1.73. Also, the “phage binding ELISA signal, Anti-PSMA Fab in the presence of PSMA” value in test [6] stood at 0.0628.

Consider FGIYCVPEWMCTGL [Phage-3397], for which the “Phage binding ELISA signal, Anti-PSMA Fab” value in test [3] was 1.8. Moreover, the “Phage binding ELISA signal, Anti-PSMA Fab in presence of PSMA” value in test [4] is 0.0891.

Regarding AALRCVPTWMCEGF [Phage-3404], the “Phage binding ELISA signal, Anti-PSMA Fab” value in test [3] worked out at 1.79. In addition, the “Phage binding ELISA signal, Anti-PSMA Fab in presence of PSMA” value in test [4] was 0.0793.

Consider ITVICKPAWMCEFL [Phage-3394], for which the “Phage binding ELISA signal, Anti-PSMA Fab” value in test [3] amounted to 1.8. Further, in test [4], the “Phage binding ELISA signal, Anti-PSMA Fab in presence of PSMA” value is 0.0613.

In the case of ETHFCKPKWMCVGF (cysteine pairing not given here; also: fused to pIII of bacteriophage) [Phage-3465], in test [5], the “Phage binding ELISA signal, Anti-PSMA Fab” value was determined as 1.74. Moreover, in test [6], the “phage binding ELISA signal, Anti-PSMA Fab in the presence of PSMA” value was 0.0927.

As for MPPVCIPRWMCEGF [Phage-3301], the “Phage binding ELISA signal, Anti-PSMA Fab” value in test [7] worked out at 1.88.

As to EVLLCKPEWMCTGF (cysteine pairing not given here; also: fused to pIII of bacteriophage) [Phage-3463], in test [5], the “Phage binding ELISA signal, Anti-PSMA Fab” value worked out at 1.74. Besides, in test [6], the “phage binding ELISA signal, Anti-PSMA Fab in the presence of PSMA” value came to 0.0669.

Take HDAMCKPAWMCAGF [Phage-3299]: the “Phage binding ELISA signal, Anti-PSMA Fab” value in test [7] turned out to be 1.88.

For EMFRCTPEWMCAGL (cysteine pairing not given here; also: fused to pIII of bacteriophage) [Phage-3307], the “Phage binding ELISA signal, Anti-PSMA Fab” value in test [7] was found to be 1.87.

On to ASVLCVPAWMCSGF [Phage-3395], for which, in test [3], the “Phage binding ELISA signal, Anti-PSMA Fab” value turned out to be 1.8. Besides, the “Phage binding ELISA signal, Anti-PSMA Fab in presence of PSMA” value in test [4] was 0.0808.

Turning to VERYCVPQWMCDGF [Phage-3403], in test [3], the “Phage binding ELISA signal, Anti-PSMA Fab” value stood at 1.8. Also, the “Phage binding ELISA signal, Anti-PSMA Fab in presence of PSMA” value in test [4] amounted to 0.117.

EIKHCIPEWMCSGF (cysteine pairing not given here; also: fused to pIII of bacteriophage) [Phage-3464]: the “Phage binding ELISA signal, Anti-PSMA Fab” value in test [5] was 1.74. Besides, the “phage binding ELISA signal, Anti-PSMA Fab in the presence of PSMA” value in test [6] is 0.104.

Take TEILCVPEWMCIGL [Phage-3392]: the “Phage binding ELISA signal, Anti-PSMA Fab” value in test [3] is 1.8. The “Phage binding ELISA signal, Anti-PSMA Fab in presence of PSMA” value in test [4] was found to be 0.0705.

For VVAVCKPLWMCEAF [Phage-3618], the “Phage binding ELISA signal, Anti-PSMA Fab” value in test [1] turned out to be 1.57. Also, the “Phage binding ELISA signal, Anti-PSMA Fab with PSMA antigen” value in test [2] came to 0.062.

For EHYACKPEWMCAGF (cysteine pairing not given here; also: fused to pIII of bacteriophage) [Phage-3304], the “Phage binding ELISA signal, Anti-PSMA Fab” value in test [7] was 1.87.

DERMCVPEWMCMGM [Phage-3620]: in test [1], the “Phage binding ELISA signal, Anti-PSMA Fab” value worked out at 1.57. For the same molecule, in test [2], the “Phage binding ELISA signal, Anti-PSMA Fab with PSMA antigen” value came to 0.0714.

Turning to MLLQCKPSWMCAGF [Phage-3302], the “Phage binding ELISA signal, Anti-PSMA Fab” value in test [7] amounted to 1.87.

For the molecule VDRFCEPIWMCIGF [Phage-3306], in test [7], the “Phage binding ELISA signal, Anti-PSMA Fab” value came to 1.87.

For TQALCKPAWMCKGF [Phage-3399], the “Phage binding ELISA signal, Anti-PSMA Fab” value in test [3] worked out at 1.8. The “Phage binding ELISA signal, Anti-PSMA Fab in presence of PSMA” value in test [4] is 0.0703.

Consider VDQVCIPDWMCNGF [Phage-3470], for which, in test [5], the “Phage binding ELISA signal, Anti-PSMA Fab” value was determined as 1.73. Besides, the “phage binding ELISA signal, Anti-PSMA Fab in the presence of PSMA” value in test [6] amounted to 0.0771.
